Test results from patent US20260242478A1 (published 2026).
Where no end group is shown, it is not given here.

B1: Phage-524 (peptide)
peptide: YCAGHLPQYMSKCL
notes: tested as crude clonal phage supernatant
B2: Phage-525 (peptide)
peptide: YCDGHLPIYMSQCL
notes: as for B1
B3: Phage-522 (peptide)
peptide: YCDGHSWEYIGKCL
notes: as for B1
B4: Phage-514 (peptide)
peptide: YCEGHLPEYMWKCL
notes: as for B1
B5: Phage-507 (peptide, not shown: large carriers)
peptide: YCDGHSAEHMAKCL
notes: Clonal phage supernatant of the Peptide-87 optimisation library
B6: Phage-516 (peptide)
peptide: YCDGHLPEYLAKCL
notes: as for B1
B7: Phage-521 (peptide)
peptide: YCDGHLPEYMAKCL
notes: as for B1
B8: Phage-505 (peptide, not shown: large carriers)
peptide: YCDGHLPEYMNKCL
notes: as for B5
B9: Phage-504 (peptide, not shown: large carriers)
peptide: YCEGHLPQYMWKCL
notes: as for B5
B10: Phage-512 (peptide, not shown: large carriers)
peptide: YCEGHLPQYMQKCL
modifications: cysteine pairing not given here; also: displayed on phage as fusion to pIII, linker, pIII sequence and order not given here
notes: as for B5
B11: Phage-517 (peptide)
peptide: YCAGHMPEYMAKCL
notes: as for B1
B12: Phage-519 (peptide)
peptide: YCEGHTAEYMQKCL
notes: as for B1
B13: Phage-506 (peptide, not shown: large carriers)
peptide: YCAGHLPEYMDKCL
notes: as for B5
B14: Phage-502 (peptide, not shown: large carriers)
peptide: YCDGHSPEYMWKCL
notes: as for B5
B15: Phage-520 (peptide)
peptide: YCMGHAPEYMAKCL
notes: as for B1
B16: Phage-515 (peptide)
peptide: YCEGHAAEYMAKCL
notes: as for B1
B17: Phage-509 (peptide, not shown: large carriers)
peptide: YCEGHLPEYMAKCL
modifications: cysteine pairing not given here; also: displayed on phage as fusion to pIII, linker, pIII sequence and order not given here
notes: as for B5
B18: Phage-510 (peptide, not shown: large carriers)
peptide: YCEGHLPEYMFKCL
modifications: cysteine pairing not given here; also: displayed on phage as fusion to pIII, linker, pIII sequence and order not given here
notes: as for B5
B19: Phage-513 (peptide)
peptide: YCDGHAPEYMMKCL
notes: as for B1
B20: Phage-523 (peptide)
peptide: YCDGHLPEYQEKCL
notes: as for B1
B21: Phage-511 (peptide, not shown: large carriers)
peptide: YCDGHLPQYMAQCL
modifications: cysteine pairing not given here; also: displayed on phage as fusion to pIII, linker, pIII sequence and order not given here
notes: as for B5
B22: Phage-508 (peptide, not shown: large carriers)
peptide: YCAGHLPQYMAKCL
notes: as for B5
B23: Phage-518 (peptide)
peptide: YCDGHLPEYMSKCM
notes: as for B1
B24: Phage-501 (peptide, not shown: large carriers)
peptide: YCAGHAPEYMEKCL
notes: as for B5

Tests used:
[1] = biological target: T1, Anti-CD28 Fab (SEQ ID NOs: 696, 697); experiment: phage ELISA on captured anti-CD28 Fab; competitor CD28 antigen pre-incubated in the wells;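 note: clonal phage supernatants added to wells preloaded with CD28 antigen in blocking buffer, control wells buffer only, bound phage read via HRP-linked anti-M13 antibody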
T1 construct: Biotinylated and captured on neutravidin coated plates in the phage ELISA
T1 sequence (VH, as listed by the source, chain 1 of 2): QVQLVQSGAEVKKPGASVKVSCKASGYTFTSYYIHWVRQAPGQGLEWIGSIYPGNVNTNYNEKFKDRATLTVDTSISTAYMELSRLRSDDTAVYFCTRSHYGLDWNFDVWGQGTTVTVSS
T1 sequence (VL, as listed by the source, chain 2 of 2): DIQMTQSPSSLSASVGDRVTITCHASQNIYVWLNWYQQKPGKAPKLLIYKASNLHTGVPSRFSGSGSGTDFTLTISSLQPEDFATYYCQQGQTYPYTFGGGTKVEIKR
Description: (§1) After panning, phage infected bacteria were plated out and colonies picked into 96 well blocks. Clonal phage was then amplified and separated from bacterial cells via centrifugation.
(§2) Clonal phage were harvested as crude supematants and screened via standard ELISAs. […] Prior to the addition of clonal phage, wells were incubated with blocking buffer and CD28 antigen or blocking buffer alone. Without washing or aspirating, clonal phage supematants were then added to the wells and incubated for a short time. Wells were then washed followed by detection of bound phage using a horse radish conjugated anti-M13 antibody. Clonal phage of interest were then sent for sequence analysis.

[2] = biological target: T1, Anti-CD28 Fab (SEQ ID NOs: 696, 697); experiment: phage ELISA; biotinylated anti-CD28 Fab on neutravidin plate, clonal phage supernatant, anti-M13 HRP
[3] = biological target: T2, Anti-CD28 Fab (SEQ ID NOs: 696, 697); experiment: phage ELISA on anti-CD28 Fab plates; competitor CD28 antigen pre-incubated in the wells
T2 construct: Biotinylated and captured on neutravidin coated plates in the phage ELISA
T2 sequence (VH, as listed by the source, chain 1 of 2): as the sequence (VH, as listed by the source, chain 1 of 2) above
T2 sequence (VL, as listed by the source, chain 2 of 2): as the sequence (VL, as listed by the source, chain 2 of 2) above
Description: as §1, §2

[4] = biological target: T2, Anti-CD28 Fab (SEQ ID NOs: 696, 697); experiment: phage ELISA; biotinylated anti-CD28 Fab on neutravidin plates, bound phage detected with anti-M13 HRP
Description: as §1, §2

[5] = biological target: Anti-CD28 Fab (SEQ ID NOs: 696, 697); experiment: phage binding ELISA on captured anti-CD28 Fab pre-incubated with CD28 antigen as competitor
Target sequence in this assay (VH, as listed by the source, chain 1 of 2): as the sequence (VH, as listed by the source, chain 1 of 2) above
Target sequence in this assay (VL, as listed by the source, chain 2 of 2): as the sequence (VL, as listed by the source, chain 2 of 2) above
Description: as §1, §2

[6] = biological target: Anti-CD28 Fab (SEQ ID NOs: 696, 697); experiment: phage binding ELISA; biotinylated anti-CD28 Fab captured on neutravidin plate, clonal phage supernatant, anti-M13 HRP detection
Target sequence in this assay (VH, as listed by the source, chain 1 of 2): as the sequence (VH, as listed by the source, chain 1 of 2) above
Target sequence in this assay (VL, as listed by the source, chain 2 of 2): as the sequence (VL, as listed by the source, chain 2 of 2) above
Description: as §1, §2

Binder | Phage binding ELISA, Anti-CD28 Fab signal in the presence of CD28 [1] | Phage binding ELISA, Anti-CD28 Fab signal [2] | Phage binding ELISA, Anti-CD28 Fab signal in the presence of CD28 [3] | Phage binding ELISA, Anti-CD28 Fab signal [4] | further results
B1 | 0.11 | 2.37 |  |  | 
YCEGHTMEYMWKCL [Phage-542] |  |  | 0.07 | 2.31 | 
B2 | 0.12 | 2.36 |  |  | 
B3 | 0.07 | 2.37 |  |  | 
B4 | 0.08 | 2.39 |  |  | 
YCEGHLPLYMWKCL [Phage-548] |  |  | 0.07 | 2.3 | 
YCDGHTLEYMWKCL [Phage-547] |  |  | 0.13 | 2.31 | 
B5 |  |  |  |  | Anti-CD28 Fab signal in the presence of CD28 (phage binding ELISA) [5]: 0.08; Anti-CD28 Fab signal (phage binding ELISA) [6]: 2.41
YCEGHSEEYISKCL [Phage-551] |  |  | 0.08 | 2.3 | 
YCDGHEPQYMLKCL [Phage-540] |  |  | 0.12 | 2.32 | 
YCDGHSPEYILKCL [Phage-545] |  |  | 0.09 | 2.31 | 
B6 | 0.11 | 2.38 |  |  | 
B7 | 0.13 | 2.37 |  |  | 
B8 |  |  |  |  | Anti-CD28 Fab signal in the presence of CD28 (phage binding ELISA) [5]: 0.13; Anti-CD28 Fab signal (phage binding ELISA) [6]: 2.43
B9 |  |  |  |  | Anti-CD28 Fab signal in the presence of CD28 (phage binding ELISA) [5]: 0.17; Anti-CD28 Fab signal (phage binding ELISA) [6]: 2.44
B10 |  |  |  |  | Anti-CD28 Fab signal in the presence of CD28 (phage binding ELISA) [5]: 0.12; Anti-CD28 Fab signal (phage binding ELISA) [6]: 2.39
B11 | 0.11 | 2.38 |  |  | 
B12 | 0.08 | 2.38 |  |  | 
YCDGHSPQYIEKCL [Phage-544] |  |  | 0.07 | 2.31 | 

Binder | Phage binding ELISA, Anti-CD28 Fab signal in the presence of CD28 [1] | Phage binding ELISA, Anti-CD28 Fab signal [2] | Phage binding ELISA, Anti-CD28 Fab signal in the presence of CD28 [3] | Phage binding ELISA, Anti-CD28 Fab signal [4] | further results
B13 |  |  |  |  | Anti-CD28 Fab signal in the presence of CD28 (phage binding ELISA) [5]: 0.12; Anti-CD28 Fab signal (phage binding ELISA) [6]: 2.42
YCEGHSPEYMSKCL [Phage-541] |  |  | 0.07 | 2.31 | 
B14 |  |  |  |  | Anti-CD28 Fab signal in the presence of CD28 (phage binding ELISA) [5]: 0.09; Anti-CD28 Fab signal (phage binding ELISA) [6]: 2.44
B15 | 0.09 | 2.38 |  |  | 
B16 | 0.08 | 2.38 |  |  | 
B17 |  |  |  |  | Anti-CD28 Fab signal in the presence of CD28 (phage binding ELISA) [5]: 0.14; Anti-CD28 Fab signal (phage binding ELISA) [6]: 2.41
B18 |  |  |  |  | Anti-CD28 Fab signal in the presence of CD28 (phage binding ELISA) [5]: 0.12; Anti-CD28 Fab signal (phage binding ELISA) [6]: 2.4
B19 | 0.09 | 2.39 |  |  | 
B20 | 0.1 | 2.37 |  |  | 
B21 |  |  |  |  | Anti-CD28 Fab signal in the presence of CD28 (phage binding ELISA) [5]: 0.2; Anti-CD28 Fab signal (phage binding ELISA) [6]: 2.4
YCDGHLDEYMAKCL [Phage-546] |  |  | 0.08 | 2.31 | 
YCAGHSPEHMWKCL [Phage-550] |  |  | 0.06 | 2.3 | 
B22 |  |  |  |  | Anti-CD28 Fab signal in the presence of CD28 (phage binding ELISA) [5]: 0.17; Anti-CD28 Fab signal (phage binding ELISA) [6]: 2.41
YCDGHAPEYMAKCL [Phage-549] |  |  | 0.09 | 2.3 | 
YCDGHLPIYMAKCL [Phage-552] |  |  | 0.14 | 2.3 | 
B23 | 0.14 | 2.38 |  |  | 
B24 |  |  |  |  | Anti-CD28 Fab signal in the presence of CD28 (phage binding ELISA) [5]: 0.09; Anti-CD28 Fab signal (phage binding ELISA) [6]: 2.45
YCAGHLPEYMPHCI [Phage-543] |  |  | 0.09 | 2.31 | 
